Read-outs that look alike come from different tables or passages of the source.
Columns and labels:
[1] = crude yeast extract, 37° C., cited from earlier work
[2] = system: T. maritima; test: Selective levels of kanamycin in liquid and solid SVO media; assay type: cell-based, Thermotoga maritima; conditions: liquid SVO
Method: (§1) One ml of overnight culture was mixed with 25 ml of hot SVO containing 0.3% GELRITE and poured to Petri dishes. Small discs of 7 mm in diameter were cut from Whatman qualitative filter paper and were placed on solidified plates. Various amount of kanamycin (50˜250 μg) was added to the paper discs. After 48 h of anaerobic incubation, sensitive strains would display inhibition zones surrounding the discs. To specify the selective levels of the antibiotic in both liquid and solid media, kanamycin ranging from 50 to 300 μg ml^−1 was supplemented, and the proliferation of bacteria was monitored for up to 72 h.
(§2) We next specified the selective levels of kanamycin in both liquid and solid media. […] However, spontaneous mutations sometimes caused the cultures to become resistant to the antibiotic, and a complete inhibition over a period of 72 h was only possible when the input amount was increased to 150 μg ml^−1. Similar phenomena were also noticed with T. sp. RQ7. On SVO plates, spontaneous mutants of T. maritima and T. sp. […] Based on these observations, for the rest of the study, kanamycin was added at 150 μg ml^−1 to liquid media and at 250 μg ml^−1 to soft and solid media.

[3] = system: T. sp. RQ7; test: as above; assay type: cell-based, Thermotoga sp. RQ7; conditions: SVO plates, 48 h of incubation
Method: as §1, §2

[4] = system: pUC19; test: Enzyme activity assay of M.TneDI prepared from DH1021 strains; assay type: biochemical
Method: Cells from 10 ml of the induced DH1021 cultures were harvested by centrifugation and were resuspended in 150 μl of lysis buffer (10 mM Tris-HCl, 10 mM MgCl2, 50 mM NaCl, 1 mM DTT, pH 8.0). Lysozyme was added to a final concentration of 0.3 mg/ml. The cell suspension was subject to 3 freeze-thaw cycles to lyse the cells. Cell lysate was then heated at 77° C. for 30 min to denature host proteins. After centrifugation at 21,130 g for 5 min, the supernatant was recovered and used as M.TneDI preparations for activity assays. Such prepared M.TneDI can be stored at −20° C. in the presence of 10% (v/v) glycerol for more than 2 months.
Plasmid pUC19 extracted from a XL1-Blue MRF′ host was used as the substrate DNA (FIG. 10). Eight micrograms of pUC19 was incubated with 10 μl of the above prepared M.TneDI for 1 h at 77° C., supplemented with 20 μg/ml of S-adenosyl-L-methionine (AdoMet). The DNA was then subjected to restriction digestions of R.TneDI or other Type II REases recognizing CGCG sequence, such as BstUI. […] Based on the growth and the enzyme activity assays, DH10212-3 was identified as the best strain for production of M.TneDI.

[5] = system: pUC19 DNA; test: Modification assay: protection of pUC19 DNA from the REase by CTN_0340 extract; assay type: biochemical; conditions: 10 μl extract, 77° C. 1 h, then REase overnight at 77° C.
Method: One gram of E. coli wet cells grown at 37° C., containing pJC339 or pJC340 or both, were resuspended in 3 ml lysis buffer (10 mM Tris-HCl, 10 mM MgCl2, 50 mM NaCl, 1 mM DTT, pH 8.0) and were lysed with two passages through a French press at 14,000 pounds per square inch. After centrifugation at 27 k×g for 25 min, the supernatant was transferred to a new tube and heated at 77° C. for 1 h to denature most of the host proteins, followed by another round of centrifugation at 17 k×g for 15 min. The supernatant containing purified Thermotoga proteins was stored at 4° C. Such extracts retained 100% of the restriction activity for up to 5 weeks, and ≧50% of the activity for at least 12 weeks. For expression analysis, heat-purified cell extracts were mixed with loading buffer and were subjected to sodium dodecyl sulfate-polyacrylamide gel electrophoresis (SDS-PAGE) in 15% (w/v) gels. HisDetector Western Blot Kit (Kirkegaard & Perry Laboratories, Inc., Maryland, USA) was used for colorimetric immunodetection of histidine-tagged CTN—0339 protein. […] One unit of the REase activity is defined as the quantity required to completely digest 1 μg of pUC19 DNA in 1 h at 77° C. […] One unit of the MTase activity is defined as the quantity required to completely protect 1 μg of pUC19 DNA from the cleavage of the REase for 1 h at 77° C. […]

[6] = system: pUC19 DNA; test: Restriction assay of heat-purified cell extracts containing the REase; assay type: biochemical; conditions: for restriction activity retained on storage: heat-purified extract stored at 4° C.
Method: One gram of E. coli wet cells grown at 37° C., containing pJC339 or pJC340 or both, were resuspended in 3 ml lysis buffer (10 mM Tris-HCl, 10 mM MgCl2, 50 mM NaCl, 1 mM DTT, pH 8.0) and were lysed with two passages through a French press at 14,000 pounds per square inch. After centrifugation at 27 k×g for 25 min, the supernatant was transferred to a new tube and heated at 77° C. for 1 h to denature most of the host proteins, followed by another round of centrifugation at 17 k×g for 15 min. The supernatant containing purified Thermotoga proteins was stored at 4° C. Such extracts retained 100% of the restriction activity for up to 5 weeks, and ≧50% of the activity for at least 12 weeks. For expression analysis, heat-purified cell extracts were mixed with loading buffer and were subjected to sodium dodecyl sulfate-polyacrylamide gel electrophoresis (SDS-PAGE) in 15% (w/v) gels. HisDetector Western Blot Kit (Kirkegaard & Perry Laboratories, Inc., Maryland, USA) was used for colorimetric immunodetection of histidine-tagged CTN—0339 protein. For restriction assays, heat-purified cell extracts containing the REase were serially diluted in 2-fold steps with the lysis buffer and were incubated with 5 μg of substrate DNA in a reaction volume of 50 μl. After 1 h of incubation at 50° C., 65° C., or 77° C., the reaction was terminated with 5 μl of stopping buffer (50 mM EDTA, 50% (w/v) glycerol, 0.02% (w/v) bromophenol blue, pH 8.0). Digested DNA fragments were resolved on 1% (w/v) agarose gels. One unit of the REase activity is defined as the quantity required to completely digest 1 μg of pUC19 DNA in 1 h at 77° C. For modification assays, heat-purified cell extracts containing the MTase were serially diluted in 2-fold steps with the lysis buffer and were incubated with 5 μg of substrate DNA in a total volume of 50 μl. After 1 h of incubation at 77° C., the reaction mix was then incubated with 0.5 U of the REase at 77° C. for overnight. One unit of the MTase activity is defined as the quantity required to completely protect 1 μg of pUC19 DNA from the cleavage of the REase for 1 h at 77° C.
The PCR product of CTN—0339 was completely digested by heat-purified REase. Two fragments were generated and were retrieved from agarose gels. The smaller piece was directly analyzed by Sanger sequencing; the larger piece was further digested by NdeI and was inserted into pUC19 at the NdeI-SmaI sites to form pDH22. The insertion region of the constructed vector was sequenced.
To provide further evidence to the functions of the two Thermotoga proteins, we first tested the restriction activity of CTN—0339 at 50° C., 65° C., and 77° C. using pUC19 plasmid DNA prepared from strain XL1-Blue MRF′. […] (FIG. 3). […] (FIG. 3). […]

C[S+](CC[C@H](N)C(=O)[O-])C[C@H]1O[C@@H](n2cnc3c(N)ncnc32)[C@H](O)[C@@H]1O (stereo partly drawn) [AdoMet, S-adenosyl-L-methionine]
original AdoMet found ([1]; 6 days): ~70%
original AdoMet found ([1]; 15 days): ~25%

NC[C@H]1O[C@H](O[C@H]2[C@H](O)[C@@H](O[C@H]3O[C@H](CO)[C@@H](O)[C@H](N)[C@H]3O)[C@H](N)C[C@@H]2N)[C@H](O)[C@@H](O)[C@@H]1O [kanamycin]
kanamycin concentration that completely inhibited growth ([2]; at least 72 h): 50 µg/mL
kanamycin input needed for complete inhibition despite spontaneous mutations ([2]; over a period of 72 h): 150 µg/mL
kanamycin concentration at which spontaneous mutants rarely showed up [3]: 250 µg/mL

B1: M.TneDI: methyltransferase of T. neapolitana encoded by CTN_0340, modifies CGCG sequences; SEQ ID NO: 14 (protein, listed as Thermotoga neapolitana)
chain: MKRRKSTRTSSFGVKGRESHDSSPFYSRAIYSNFSLPKPSEEDLIENPLPENLLDKVIEGDAREVLKKIPDCSIHLMVTSPPYNVGKEYDEDMTLDEYLEFIEEIMKEVYRVLVWGGRACFNVANLGRKPYIPLHAYLIHLFEKIGFLIRGEIIWDKGEAVSGSSTAWGSWMSPVNPVLRDQHEYIIVMSKGDLKRRKPSDREAKSTITREEFLEFTRSVWKFPPESAKRVGHPAPFPEELPYRCIQLYTFKGDVVLDPFAGVGTTCVAAVKTGRHFVGIEINPEYVKKAEERVKDILSKPTLFEDHC
protection of substrate DNA from R.TneDI or BstUI ([4]; 10 μl preparation, 8 μg pUC19, 1 h at 77° C., 20 μg/ml AdoMet): prevents substrate DNA from the degradation
storage time of M.TneDI preparation ([4]; −20° C., 10% (v/v) glycerol): more than 2 months
digestion of treated pUC19 DNA by the REase [5]: only partially digested

B2: R.TneDI: Type II restriction endonuclease of T. neapolitana encoded by CTN_0339, recognizing CGCG; SEQ ID NO: 13 (protein, listed as Thermotoga neapolitana)
chain: MRKTDPLIDIFKKNKERIDILGKAWDIFYFEGRAPDVGKRRENFIVEMIRKELSHFIKSVNQAPDTERNWDIEITFQDDSTKRYSIKTTEGFSDVKIAWDGFPTKDRILTFNFQADIFYIARNKDKIILCVIDLEKLRDLQREVEKNESKLEEYYSLPSSNTNPRGFGLKSSTVKRLIELSKKEENYLEIDYKPFPVELILKAKEEYFKGWYDLIKELIEKYQQ
extract required to completely digest 1 μg of pUC19 DNA within 1 h ([6]; 65° C. or 50° C.): 2.5 μl
extract required to completely digest 1 μg of pUC19 DNA within 1 h ([6]; 77° C., relative to the amount at 65° C. or 50° C.): half of the amount
restriction activity retained on storage ([6]; at least 12 weeks): ≥ 50%
restriction activity retained on storage ([6]; up to 5 weeks): 100%
